Reference: patent US6989364B1, “Methods for treating cardiac hypertrophy by administering IFN-γ” (Genentech, Inc., priority 1998, dated 2006)

What was measured:
[1] = tested on: rats with pressure overload; assay: Pressure overload (abdominal aortic banding) cardiac hypertrophy: body and organ weights; type: in vivo, rat
Procedure: For in vivo testing it is common to induce pressure-overload cardiac hypertrophy by constriction of the abdominal aorta of test animals. In a typical protocol rats (e.g. male Wistar or Sprague-Dawley) are treated under anesthesia, and the abdominal aorta of each rat is narrowed down just below the diaphragm. Beznak M., Can. J. Biochem. Physiol. 33, 985–94 (1955). The aorta is exposed through a surgical incision, and a blunted needle is placed next to the vessel. The aorta is constricted with a ligature of wool thread around the needle, which is immediately removed and which reduces the lumen of the aorta to the diameter of the needle. This approach is described, for example, in Rossi et al., Am. Heart J. 124, 700–709 (1992) and O'Rourke and Reibel, P.S.E.M.B. 200, 95–100 (1992). A detailed description of the protocol used by the present inventors is disclosed in the examples hereinbelow.
Animal model of pressure overload The induction of pressure overload by partial ligation of the abdominal aorta in rats was as described previously. Kimura et al., Am. J. Physiol. 1989:256 (Heart Circ. Physiol. 25):H1006–H1-11; Batra et al., J. Cardiovasc. Pharmacol. 17(suppl. 2), S151–S153 (1991). In brief, rats were anesthesized with ketamine/xylazine as described above. A 3 cm midline incision was made in the abdominal wall. The abdominal aorta between the diaphragm and the renal artery was exposed and looped with 5–0 silk suture. The suture was tightened around a gauge 23 needle, and then the needle was withdrawn. Sham animals received the surgery without tightening the suture.
Experimental protocol in rats with pressure overload The rats with aortic banding randomly received subcutaneous injection of IFN-γ at 0.08 mg/k twice a day for one day before surgery and for 14 days after surgery. Sham animals were not treated. Thirteen days after treatment, a catheter was implanted into the right carotid artery under anesthesia as indicated above. One day after implantation, arterial pressure and HR were measured in conscious rats. The heart and other organs including the liver, kidney, and spleen were removed, weighed, and fixed in 10% buffered formalin for pathological studies. The left ventricle was quickly dissected and frozen with liquid nitrogen in some animals and stored at −80° C. for assessment of gene expression.
Statistical analyisis Results are expressed as mean±SEM. One way analysis of variance (ANOVA) was performed to assess differences in parameters between groups. Significant differences were then subjected to post hoc analysis using Newman-Keuls method; P<0.05 was considered significant.

[2] = tested on: adult rat cardiac myocytes; assay: Inhibition of PGF2α-induced spreading response of adult myocytes; type: cell-based
Procedure: Myocytes were pre-incubated with saline vehicle or IFN-γ (500 U/ml) on day of isolation. A second addition of vehicle or IFN-γ was performed 24h after isolation, along with the addition of either vehicle or PGF2α (10^−7 M). After an additional 72 hr incubation, cells were fixed in glutaraldehyde, stained with eosin Y and viewed by fluorescence microscopy. A, B, C Cardiac myocytes after 4 days in culture: control, PGF2α, and PGF2α+IFN-γ, respectively. D, E, F Histographs showing maximum breadth of rod shaped cardiac myocytes versus percent frequency of breadth occurrence. The maximum breadth of rod-shaped cells was determined by fluorescence microscopy and imaging software. At least 200 rod shaped cells from a single experiment were examined per group.
Myocytes were pre-incubated with saline vehicle or IFN-γ on day of isolation. A second amount of IFN-γ was added 24 hr after isolation, along with the addition of either vehicle or PGF2α (10^−7 M). After an additional 72 hr incubation, cells were fixed in glutaraldehyde, stained with eosin Y and viewed under fluorescence. Quantitation of myocyte morphology: A control, B PGF2α, C PGF2α+IFN-γ (25 U/ml), D PGF2α+IFN-γ (100 U/ml), E PGF2α+IFN-γ (500 U/ml). Histographs showing maximum breadth of rod shaped cardiac myocytes versus percent frequency of breadth occurrence. The maximum breadth of rod-shaped cells was determined by fluorescence microscopy and imaging software. At least 200 rod shaped cells from a single experiment were examined per group.
In this assay, ventricular myocytes are isolated from a single (male Sprague-Dawley) rat, essentially following a modification of the procedure described in detail by Piper et al., “Adult ventricular rat heart muscle cells.” In: Cell Culture Techniques in Heart and Vessel Research, H. M. Piper, ed., Berlin: Spinger-Verlag, 1990, pp. 36–60. This procedure permits the isolation of adult ventricular myocytes and the long-term culture of these cells in the rod-shaped phenotype. […] Piper et al., supra; Lai et al., Am J. Physiol. 1996; 271 (Heart Circ. Phvsiol. 40):H2197–H2208. The inhibition of myocyte spreading induced by PGF2α, or PGF2α analogs, (e.g. fluprostenol) and phenylephrine by various potential inhibitors of cardiac hypertrophy is then tested. A detailed protocol is described in the examples that follow.
Adult myocyte cultures The procedure used for the isolation of ventricular myocytes from adult rats was a modification of a procedure described by Piper et al., supra, and is detailed in Lai et al., supra. For each myocyte preparation, one male Sprague-Dawley rat weighing about 250 g was anesthetized with pentobarbital sodium, and the heart was removed. Extraneous tissue was trimmed from the heart, and it was mounted onto a Langendorff system that was temperature controlled at 37° C. The heart was perfused with about 40 ml of Krebs buffer (110 mM NaCl, 2.6 mM KCl, 1.2 mM KH2PO4, 1.2 mM MgSO4.7H2O, 25 mM NaHCO3 and 11 mM glucose). A solution containing 30 mg of collagenase and 12.5 μl of 100 mM CaCl2 in 50 ml of Krebs buffer was then recirculated through the heart for 30 minutes. The heart was removed from the Langendorff apparatus, and the atria and connective tissues were removed. The ventricles were cut into 2 mm cubes with dissecting scissors, and further digested in a fresh collagenase solution (30 mg collagenase and 400 mg BSA dissolved in Krebs buffer with 12.5 μl of 100 mM CaCl2) for five minutes at 37° C. During the digestion, the tissue suspension was gently band shaken one time per minute. After the digestion, the supernatant was removed and saved, and the remaining tissue was further digested in fresh collagenase solution for an additional five minutes.

[3] = pressure overload, IFN-γ 0.08 mg/kg s.c. twice a day, 1 day before and 14 days after surgery, mean ± SEM

With “IFN-γ: recombinant mouse IFN-γ (Genentech, Inc., South San Francisco, Calif., or Genzyme, Cambridge, Mass.)” the “Effect on cardiac hypertrophy induced by pressure overload (heart, atrial, ventricular, left ventricular weights and ratios to BW)” value ([1]; aortic banding, IFN-γ vs vehicle, Table 2, FIGS. 7 and 8) was “significantly attenuated cardiac hypertrophy”, the “BWO, basal levels of body weight” value ([1]; pressure overload rats, before treatment, mean ± SEM) was 279.0 ± 1.3 g and the “AW, atrial weight” value [1, 3] was “.046 ± .003 g”. For the same substance, the “AW/BW, atrial weight to body weight” value [1, 3] was “.129 ± .007 g/kg”, the “BW, body weight post treatment” value [1, 3] was 355.5 ± 5.2 g and the “KW, kidney weight” value [1, 3] was 1.349 ± .071 g. The KWBW [1, 3] was 3.776 ± .071 g/kg, the “LW, liver weight” value [1, 3] was 13.96 ± .47 g and the “LW/BW, liver weight to body weight” value [1, 3] was 38.94 ± .92 g/kg. For the same substance, the “SW, spleen weight” value [1, 3] was 1.170 ± .053 g, the “SW/BW, spleen weight to body weight” value [1, 3] was 3.261 ± .121 g/kg and the “ΔBW, BW-BWO” value [1, 3] was 76.5 ± 4.7 g. For the same substance, the “Dose dependence of the inhibitory effect on PGF2α-induced myocyte spreading” value ([2]; IFN-γ 25, 100, 500 U/ml, PGF2α 10^−7 M) was “dose dependent”, the “Inhibition of PGF2α-induced myocyte spreading (maximum cell breadth of rod shaped cells)” value ([2]; IFN-γ 500 U/ml, PGF2α 10^−7 M, 72 hr, P<0.001 vs PGF2α) was “significantly inhibited their response to PGF2α” and the “Effect of the substance alone on morphology of the cells” value ([2]; IFN-γ alone, 500 U/ml, no PGF2α) was “had no observable effect on the morphology of the cells”.
